Assays:
hASIC3a = molecular target: T1, hASIC3a (Homo sapiens, UniProt Q9UHC3); test: Subtype selectivity, FACS binding, transfected CHO-K1 cells; type: cell-based
T1 construct: expressed in transfected cells; host or cells: CHO-K1, transient
T1 sequence (Q9UHC3 1-531): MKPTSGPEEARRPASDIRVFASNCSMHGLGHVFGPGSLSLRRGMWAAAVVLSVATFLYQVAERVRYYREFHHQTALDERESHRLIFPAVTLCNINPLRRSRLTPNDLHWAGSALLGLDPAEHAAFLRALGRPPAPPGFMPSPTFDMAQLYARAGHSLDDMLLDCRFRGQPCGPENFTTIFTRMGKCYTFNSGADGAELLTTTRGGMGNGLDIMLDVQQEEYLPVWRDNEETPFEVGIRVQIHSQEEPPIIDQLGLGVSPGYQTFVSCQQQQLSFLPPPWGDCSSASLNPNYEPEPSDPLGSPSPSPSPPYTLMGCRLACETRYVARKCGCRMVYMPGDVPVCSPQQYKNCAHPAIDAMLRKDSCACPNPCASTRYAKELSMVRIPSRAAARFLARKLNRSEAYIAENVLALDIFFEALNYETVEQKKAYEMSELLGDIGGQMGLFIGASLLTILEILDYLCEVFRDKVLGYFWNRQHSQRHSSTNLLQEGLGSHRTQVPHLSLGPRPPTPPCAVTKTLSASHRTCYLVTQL
Experimental: (§1) To test the species and subtype selectivity of ASC06-IgG1, vectors encoding human ASIC1b-eYFP fusion, rat ASIC1a-eYFP fusion, mouse ASIC1a-eYFP fusion, hASIC2a-eYFP fusion, hASIC2b-eYFP fusion, and hASIC3a-eYFP fusion were constructed. The CHO-K1 cells were transiently transfected with these plasmids. FACS binding assay and immunocytochemistry (ICC) were carried out to determine if ASC06-IgG1 is able to bind to the cell surface-expressed ASIC homologs and isotypes.

hASIC1b = molecular target: T2, hASIC1b (Homo sapiens, UniProt P78348); test: as above; type: cell-based
T2 construct: expressed in transfected cells; host or cells: CHO-K1, transient
T2 sequence (P78348 1-562 isoform P78348-3): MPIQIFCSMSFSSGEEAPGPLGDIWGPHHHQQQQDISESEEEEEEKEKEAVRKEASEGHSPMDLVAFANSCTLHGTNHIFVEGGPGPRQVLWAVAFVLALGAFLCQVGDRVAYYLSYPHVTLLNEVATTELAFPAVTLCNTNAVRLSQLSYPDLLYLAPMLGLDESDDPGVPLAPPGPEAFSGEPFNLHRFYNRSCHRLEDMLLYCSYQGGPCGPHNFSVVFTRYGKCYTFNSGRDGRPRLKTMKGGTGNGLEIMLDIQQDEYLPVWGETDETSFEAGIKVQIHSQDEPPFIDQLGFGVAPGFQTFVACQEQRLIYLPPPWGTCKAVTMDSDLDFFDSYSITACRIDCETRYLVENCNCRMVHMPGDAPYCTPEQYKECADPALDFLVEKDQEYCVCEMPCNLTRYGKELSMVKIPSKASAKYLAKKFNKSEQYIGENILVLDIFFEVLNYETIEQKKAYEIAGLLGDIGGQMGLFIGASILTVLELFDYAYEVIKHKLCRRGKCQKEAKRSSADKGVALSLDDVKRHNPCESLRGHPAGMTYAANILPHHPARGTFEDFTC
Experimental: as §1

B1: ASC06-IgG1: ASC06 antibody converted into a full length IgG1 form (antibody, V domains shown)
VH: QVQLQQSGGGLVQPGGSLRLSCAASGFTFSSYAMSWVRQAPGKGLEWVSAISGSGGSTYYADSVKGRFTISRDNSKNTLYLQMNSLRAEDTAVYYCAKDSFYGYSKGDWGQGTLVTVSS
VL: QSALTQPASVSGSPGQSITISCTGTSSDVGAYNYVSWYQQQPGKAPKLMIYGVSNRPSGVSNRFSGSKSGNAASLTISGLQAEDEADYYCSSYTSSSTYVFGTGTKLTVLG
With B1 the “FACS recognition of hASIC3a” value (hASIC3a) was “not” and the “FACS recognition of hASIC1b” value (hASIC1b) was “not”.

— patent US12692310B2, “ASIC1 channel antagonist antibody” (ShanghaiTech University, priority 2019, dated 2026)
